Measurements: patent CN111704670A (MABWELL SHANGHAI BIOSCIENCE CO LTD; JIANGSU MABWELL NEW …, dated 2020)

B1: 重组人源抗RANKL抗体IgG2型二硫键异构体IgG2-B型 (antibody, V domains shown)
VH: EVQLLESGGGLVQPGGSLRLSCAASGFTFSSYAMSWVRQAPGKGLEWVSGITGSGGSTYYADSVKGRFTISRDNSKNTLYLQMNSLRAEDTAVYYCAKDPGTTVIMSWFDPWGQGTLVTVSS
VL: EIVLTQSPGTLSLSPGERATLSCRASQSVRGRYLAWYQQKPGQAPRLLIYGASSRATGIPDRFSGSGTDFTLTISRLEPEDFAVFYCQQYGSSPRTFGQGTKVEIKR
B2: 重组人源抗RANKL抗体IgG2型二硫键异构体IgG2-A型 (antibody, V domains shown)
VH: B1 VH
VL: B1 VL
B3: 重组人源抗RANKL单克隆抗体IgG2型 (TK006) (antibody, V domains shown)
VH: B1 VH
VL: B1 VL

Target: T1, RANKL-兔Fc (rabbit, UniProt O14788 140-317 (human entry), limits assumed)
T1 sequence (looked up): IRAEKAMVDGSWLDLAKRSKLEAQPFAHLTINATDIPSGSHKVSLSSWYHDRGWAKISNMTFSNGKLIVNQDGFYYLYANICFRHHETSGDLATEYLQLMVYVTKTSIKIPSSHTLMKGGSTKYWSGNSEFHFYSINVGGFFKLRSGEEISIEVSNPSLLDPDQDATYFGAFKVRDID
Assay: cell-based or functional assay

| 异构体生物活性 IC50 | 生物学活性量效曲线 IC50 (RAW264.7 TRAP/pNPP assay); 原液 lot 20131201 | 生物学活性量效曲线 IC50 (RAW264.7 TRAP/pNPP assay); 原液 lot 20140201 | 生物学活性量效曲线 IC50 (RAW264.7 TRAP/pNPP assay); 工作参考品 lot 20140301, plate with Denosumab | 生物学活性量效曲线 IC50 (RAW264.7 TRAP/pNPP assay); 工作参考品 lot 20140301, plate with lot 20131201 | 生物学活性量效曲线 IC50 (RAW264.7 TRAP/pNPP assay); 工作参考品 lot 20140301, plate with lot 20140201 | Binder |
| --- | --- | --- | --- | --- | --- | --- |
| 3 ng/mL | – | – | – | – | – | B1 |
| 2.89 ng/mL | – | – | – | – | – | B2 |
| – | 1.07 ng/ml | 1.63 ng/ml | 1.11 ng/ml | 1.33 ng/ml | 1.34 ng/ml | B3 |
